Results as given in patent publication US6475791B1, “Uses for DNA structure-specific recognition protein” (Massachusetts Institute of Technology, priority 1988, dated 2002).

Assays:
[1] = test system: cellular SSRP in human (HeLa) and hamster (V79) cell extracts; conditions: cited from earlier work
[2] = test system: h-mtTFA (mitochondrial transcription factor A) (Homo sapiens); test: inhibition
HMG1 = test: inhibition; conditions: cisplatin 1,2-d(GpG) intrastrand crosslink; inhibition of excision repair by HeLa CFE at 1 uM HMG1 (20% at 0.5 uM); 8 mM MgCl2, 2 mM ATP, 30 C
[3] = test system: cisplatin 1,2-d(G^G) intrastrand adduct (1,2-GG), excision by human excinuclease; test: Exinuclease excision repair of the 1,2-intrastrand cisplatin lesion by HeLa cell-free extract, with or without HMG-box protein; type: biochemical; conditions: for percent inhibition of repair, 1,2-GG adduct: 30 min, 30° C, average of two experiments
Procedure: (§1) Exinuclease substrates with defined cisplatin lesions Nucleic acid fragments (oligomers) bearing a 1,2-d(G^G) or a 1,3-d(GTG) cisplatin crosslink at a defined site were prepared essentially according to the method of Shi et al. (1987), 15 Nucleic Acids Res. 6843, by ligation of a mixture of a cisplatin-lesioned dodecamer with seven other oligonucleotides to produce 156 bp fragments. Prior to ligation, lesioned dodecamers were labeled with [γ-^32P]ATP such that the detectable radiolabel would be located at the 4th phosphodiester bond 5′ to the 1,3-intrastrand d(GTG) lesion, or the 5th phosphodiester bond 5′ to the 1,2-intrastrand d(G^G) lesion. Thus, the radiolabel would be included in the 27-29 nucleotide fragment spanning the cisplatin lesion that would be released by exinuclease. Full length (156 bp) exinuclease substrate oligomers were isolated on a 5% polyacrylamide/8 M urea denaturing gel and reannealed.
(§2) Exinuclease reaction. The excision reaction buffer contained 40 mM Hepes, pH 7.9, 80 mM KCl, 8 mM MgCl2, 2 mM ATP, 20 μM of each dNTP, 1 mM dithiothreitol, 0.3 mM EDTA, 6.8% (v/v) glycerol, and 200 μg/ml bovine serum albumin. The reaction mixture (50 μl) contained 100 μg of CFE (in cases of complementation, 50 μg of each of the XP CFE) and 30 pM DNA substrate (specific activity 7000 Ci/mmol), plus 250 ng pBR322 as carrier DNA. The excision reaction was carried out varying lengths of time at 30° C. Following proteinase K digestion, DNA exinuclease reaction products were extracted by phenol/chloroform and precipitated with ethanol. Equal amounts of DNA were loaded onto each lane.
(§3) The radiolabeled substrates bearing specific 1,2- and 1,3-intrastrand cisplatin lesions and the HeLa cell-free extract described above in Example 1 were used.
(§4) Gel Mobility Shift Assay. The 25 μl reaction mixtures contained 30 pM substrate and 0, 1, 2, 4 or 8 μM HMG1. Mixtures were incubated at 30° C. for 10 min. Samples (1.5 μl) of the mixtures were withdrawn and adjusted to 15% (v/v) glycerol, and electrophoretically resolved on a 5% native polyacrylamide gel. Results were visualized by autoradiography.
(§5) Exinuclease reaction in the presence of HMG1. Following withdrawal of the above samples for gel mobility shift analysis, 50 μg of HeLa CFE was added to each of the reaction mixtures and incubation was continued for 30 min at 30° C. as described in Example 1. Reactions were stopped and DNA reaction products were retrieved and analyzed as described in Example 2.
(§6) An exinuclease inhibition study was carried out generally as described in Example 3, using 0, 0.5 or 1.0 μM concentrations of HMG1 or h-mtTFA in parallel incubations.

[4] = test system: yeast ixr-1 null mutant strain; conditions: Brown et al. (1993); cited from earlier work
[5] = test system: cisplatin 1,3-d(GTG) intrastrand adduct (1,3-GTG), excision by human excinuclease; test: Exinuclease excision repair of the 1,3-intrastrand cisplatin lesion by HeLa cell-free extract, with or without HMG-box protein; type: biochemical; conditions: for percent inhibition of repair, 1,3-GTG adduct: 30 min, 30° C, average of two experiments
Procedure: as §1, §2, §3, §4, §5, §6

[6] = 90 min, HeLa CFE, no inhibitor, over 20 independent assays

[Cl-].[NH-]CC[N-]CC[NH-].[Pt+4] [chloro(diethylenetriamine)platinum(II)]
cellular SSRP binding to double stranded probe DNA bearing lesions produced by the compound [1]: did not bind

N.N.[Cl][Pt+2][Cl] [transplatin]
cellular SSRP binding to double stranded probe DNA bearing lesions produced by the compound [1]: did not bind

156 bp duplex with site-specific cisplatin 1,3-d(GTG) intrastrand crosslink
activity ([2]; cisplatin 1,3-d(GpTpG) intrastrand crosslink, inhibition of excision repair at 1 uM h-mtTFA (40% at 0.5 uM)): 75 % inhibition

156 bp duplex with site-specific cisplatin 1,2-d(GpG) intrastrand crosslink
activity (HMG1): 40 % inhibition | activity ([2]; cisplatin 1,2-d(GpG) intrastrand crosslink, inhibition of excision repair at 0.5 uM h-mtTFA (100% at 1 uM)): 95 % inhibition

N.N.[Cl][Pt][Cl] [cisplatin, cis-diamminedichloroplatinum(II), reference compound]
cellular SSRP binding to double stranded probe DNA bearing lesions produced by the compound [1]: bound | range of excision of the 1,2-d(G^G) crosslink [3, 6]: 1-8% | sensitivity of ixr-1 null yeast to cisplatin killing relative to parent (wildtype Ixr-1) strain [4]: two-fold less sensitive | range of excision of the 1,3-d(GTG) crosslink [5, 6]: 2.3-8%

NCCN.[Cl][Pt][Cl] [cis-dichloro(ethylenediamine)platinum(II)]
cellular SSRP binding to double stranded probe DNA bearing lesions produced by the compound [1]: bound

NC1CCCCC1N.[Cl][Pt][Cl] (stereo not drawn) [cis-dichloro(1,2-diaminocyclohexane)platinum(II)]
cellular SSRP binding to double stranded probe DNA bearing lesions produced by the compound [1]: bound

B1: HMG1: Recombinant HMG1 protein purified from an E. coli overproducing strain; HMG domain protein (protein, UniProt P09429 1-215, looked up)
High mobility group protein B1: MGKGDPKKPRGKMSSYAFFVQTCREEHKKKHPDASVNFSEFSKKCSERWKTMSAKEKGKFEDMAKADKARYEREMKTYIPPKGETKKKFKDPNAPKRPPSAFFLFCSEYRPKIKGEHPGLSIGDVAKKLGEMWNNTAADDKQPYEKKAAKLKEKYEKDIAAYRAKGKPDAAKKGVVKAEKSKKKKEEEEDEEDEEDEEEEEDEEDEDEEEDDDDE
percent inhibition of repair, 1,2-GG adduct ([3]; 1 μM protein, HeLa CFE): 40% | effect on excision of the cisplatin 1,2-intrastrand crosslink ([3]; escalating concentrations of purified HMG1 (0-8 μM), FIG. 5): monotonically inhibited | percent inhibition of repair, 1,3-GTG adduct ([5]; 0.5 μM protein, HeLa CFE): 0% | percent inhibition of repair, 1,3-GTG adduct ([5]; 1 μM protein, HeLa CFE): 0% | effect on excision of the 1,3-crosslink ([5]; HMG1 concentrations up to about 4 μM, inhibited at higher concentrations, FIG. 5): modestly stimulated

B2: h-mtTFA: human mitochondrial transcription factor A, an HMG domain protein (protein, UniProt Q00059 43-246, looked up)
Transcription factor A, …: SSVLASCPKKPVSSYLRFSKEQLPIFKAQNPDAKTTELIRRIAQRWRELPDSKKKIYQDAYRAEWQVYKEEISRFKEQLTPSQIMSLEKEIMDKHLKRKAMTKKKELTLLGKPKRPRSAYNVYVAERFQEAKGDSPQEKLKTVKENWKNLSDSEKELYIQHAKEDETRYHNEMKSWEEQMIEVGRKDLLRRTIKKQRKYGAEEC
percent inhibition of repair, 1,2-GG adduct ([3]; 0.5 μM protein, HeLa CFE): 95% | percent inhibition of repair, 1,2-GG adduct ([3]; 1 μM protein, HeLa CFE): 100% | percent inhibition of repair, 1,3-GTG adduct ([5]; 0.5 μM protein, HeLa CFE): 40% | percent inhibition of repair, 1,3-GTG adduct ([5]; 1 μM protein, HeLa CFE): 75%
